For test [1], the target named is α-synuclein (human) (UniProt P37840).
Test [2] shares this target. The source holds these as a separate data set.
For test [3] the target is unchanged. The source holds these as a separate data set.
For test [4] the target is unchanged. The source holds these as a separate data set.

For “DNAJB6b (from UniProt O75190-2 1-241) (natural protein)”, the apparent solubility of α-syn (free monomer in supernatant by HPLC-MS) with 0.12 and 2 μM JB6, pH 4.5 in the test with α-synuclein (human) [1] is 2.3 μM. The half-time of loss of free α-syn monomer by 1D 1H NMR, 20 μM α-syn with 250 nM JB6 (4.9 h without JB6), pH 5.5, 37 °C with α-synuclein (human) [2] was determined as 35 h. Moreover, the apparent solubility of α-syn (free monomer in supernatant by HPLC-MS) with 7.8 to 62.5 nM JB6, pH 5.5 (0.8 μM for α-syn alone; 125 nM JB6 not at equilibrium, 16 μM) with α-synuclein (human) [3] is 7.7 μM. Moreover, the apparent solubility of α-syn (free monomer by 1D 1H NMR at about 300 h) with 250 nM JB6, pH 5.5 with α-synuclein (human) [4] turned out to be 0.47 μM.

The values are drawn from PMC12100659.
